The assay deals with IgE of unfractionated patient serum (pool of patients' sera known to be reactive to the epitope peptide) (human). The assay is described as follows: inhibition: whole patients' sera pre-incubated with soluble peptide, then probing solid-phase E1 peptide.

QGLRGEEMEEMV [soluble form of the epitope peptide …]: the amount of soluble peptide needed to completely inhibit binding came out at 70 µg.

(Values after patent US20030103903A1.)
